The subject of this data set is MS2 coat protein. In words: apparent KD of MS2 coat protein; designed switch direction (-1 OFF switch, 1 ON switch): -1; higher = weaker reporter binding. A digest of the protocol: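 Apparent KD, taken as the median over clusters for each design, was obtained by curve-fitting normalised cluster fluorescence. Designed RNA switches had been transcribed on Illumina chips by stalled E. coli RNA polymerase and titrated with SNAP-549-labelled MS2 coat protein, doubling from 0.7 or 1.5 nM to 3 µM.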

[1] abbreviates: Eterna round: R95, input ligand: FMN 200 uM.
Setting [2] is: Eterna round: R95, input ligand: microRNA oligo, concentration not stated.
Where [3] appears, read: Eterna round: R95, input ligand: none.
Where [4] appears, read: input ligand: microRNA oligo, concentration not stated.

For “CUAAUAUAUCAGGAUAUGAUUUUAUGUGUUGGAUCAGAAGGGAUAACAUGAGGAUCACCCAUGUUGUGGAGUGA [JR_Ex6_Sub037] (Eterna round: R97, puzzle: Exclusion 6)”, the “apparent KD of MS2 coat protein” value (input ligand: FMN 200 uM) came to 271 nM and the “apparent KD of MS2 coat protein” value (input ligand: none) came out at 112 nM.

Turning to “CUAGAUCAUUGGAUCUAGUACAUGAGGAUCACCCAUGUGACGAGUUACAUGUUAUAUAAGCUUUUUGCUCGUCAUUU [AK 1] (puzzle: Sensor v3, turn-off variant 1)”, the “apparent KD of MS2 coat protein” value runs as follows: under setting [1], 63.4 nM; under setting [2], 81.1 nM; under setting [3], 86.3 nM.

For “CUAGAUCUUCGGAUCUAGUACAUGAGGAUCACCCAUGUGACGAGUUUAUGGGUGAACAAGCUUUUUGCUCGUCUUAU [Sensor v3 - Turn-off variant 1 - 7] (puzzle: Sensor v3, turn-off variant 1)”, the “apparent KD of MS2 coat protein” value under setting [1] is 71.4 nM, the “apparent KD of MS2 coat protein” value under setting [2] came out at 16.5 nM and the “apparent KD of MS2 coat protein” value under setting [3] was found to be 84.8 nM.

With “CUAGCGAGUGUAGGAUAUCGGACUGUUUCAGUCUGAGAAGGACAUGAGGAUCACCCAUGUAUUGCUACGUGAGUAGCACGCUAG [JL ENG1 3.00] (Eterna round: R96, puzzle: Exclusion NG 1)”, the “apparent KD of MS2 coat protein” value by setting is: (input ligand: FMN 200 uM) 32.9 nM; under setting [4], 17.5 nM; (input ligand: none) 19 nM.

Regarding “CUAGCGAGUGUAGGAUAUCGGACUGUUUCAGUCUGAGAAGGACAUGAGGAUCACCCAUGUAUUGCUGCGUGAGUAGCACGCUAG [JL ENG1 3.99] (Eterna round: R96, puzzle: Exclusion NG 1)”, the “apparent KD of MS2 coat protein” value reads like this: (input ligand: FMN 200 uM) 32.4 nM; under setting [4], 15.6 nM; (input ligand: none) 19.5 nM.

In the case of “CUAGCUUCGGCUAGUACAAGCUUUUUGCUCGUCUUAUUAACAUGAGGAUCACCCAUGUCAAAGAGACCUCAUGUAUU [Sensor v3 - turn-off variant 2 - 2] (puzzle: Sensor v3, turn-off variant 2)”, the “apparent KD of MS2 coat protein” value worked out at 347 nM under setting [1], 15.5 nM under setting [2] and 572 nM under setting [3].

On to “CUAUGGCAAGGAUAUACGUAUCAUGUGACGAUAGCUCAAGAACAUGAGGAUCACCCAUGUAGAAGGUGCGGAGA [Eternabot (L1) Solution 90] (Eterna round: R97, puzzle: Exclusion 2)”, for which the “apparent KD of MS2 coat protein” value by setting is: (input ligand: FMN 200 uM) 54.2 nM; (input ligand: none) 54.6 nM.

In the case of “CUAUGUUAGCAGGAUAUGCCAUUAUUCUUUUUCGCAGAAGGGCUUACAUGAGGAUCACCCAUGUUACAUUUCUU [JR_E6_Sub086] (Eterna round: R96, puzzle: Exclusion 6)”, the “apparent KD of MS2 coat protein” value (input ligand: FMN 200 uM) turned out to be 42.6 nM, the “apparent KD of MS2 coat protein” value under setting [4] was found to be 14.9 nM and the “apparent KD of MS2 coat protein” value (input ligand: none) came out at 18.5 nM.

As for “CUAUGUUAGCAGGAUAUGCCAUUAUUCUUUUUCGCAGAAGGGCUUACAUGAGGAUCACCCAUGUUACAUUUCUU [JR_E6_Sub086] (puzzle: Exclusion 6)”, under setting [2], the “apparent KD of MS2 coat protein” value came out at 16.7 nM.

As to “CUAUUCCGAGGAUAUACAUGAGGAUCACCCAUGUCGGGCCUCUGGCCUAAGGCCGAAAGUAGAAGGUGGGUUUC [JL Riri mod 10] (puzzle: Exclusion 3)”, the “apparent KD of MS2 coat protein” value under setting [2] is 54.2 nM.

For the sequence “CUCAUACAUGAGGAUCACCCAUGUGAGGAUAUACUCCGCACCACACAGGUCGGGUAGCGUAGAAGGUAUUGGGU [Eternabot (L1) Solution 85] (Eterna round: R97, puzzle: Exclusion 1)”, the “apparent KD of MS2 coat protein” value is, setting by setting: (input ligand: FMN 200 uM) 96.3 nM; (input ligand: none) 168 nM.

Turning to “CUCCAGACAGGAUAUACGAGGCUGUGUUCCCAUUAUAGGACACAUGAGGAUCACCCAUGUAGAAGGGUCAAUGG [Eternabot (L1) Solution 28] (Eterna round: R97, puzzle: Exclusion 2)”, the “apparent KD of MS2 coat protein” value amounted to 286 nM (input ligand: FMN 200 uM) and 742 nM (input ligand: none).

Regarding “CUCCGGCAUGUAGGAUAUGGAUCCGAUUAGGAUCCAGAAGGACAUGAGGAUCACCCAUGUACAUGUAAACAGUCAUCACCGGAC [salish99_ExNG1_r04_202] (Eterna round: R96, puzzle: Exclusion NG 1)”, the “apparent KD of MS2 coat protein” value (input ligand: FMN 200 uM) amounted to 284 nM, the “apparent KD of MS2 coat protein” value under setting [4] is 29.9 nM and the “apparent KD of MS2 coat protein” value (input ligand: none) was 44.2 nM.

For the sequence “CUCCGGCGUGUAGGAUAUGGUUCCGUUUAGGUUCCAGAAGGACAUGAGGAUCACCCAUGUACAUGUCGUCGGUCGUCACCGGGC [salish99_ExNG1_r04_213] (Eterna round: R96, puzzle: Exclusion NG 1)”, the “apparent KD of MS2 coat protein” value was found to be 87.3 nM (input ligand: FMN 200 uM), 28.8 nM under setting [4] and 33.1 nM (input ligand: none).

Take “CUCCGGCGUGUAGGAUAUGGUUCCGUUUCGGUUCCAGAAGGACAUGAGGAUCACCCAUGUGCCUGUCGUCGGUCGUCACCGGGC [salish99_ExNG1_r04_217] (Eterna round: R96, puzzle: Exclusion NG 1)”: the “apparent KD of MS2 coat protein” value runs as follows: (input ligand: FMN 200 uM) 17.8 nM; under setting [4], 10.3 nM; (input ligand: none) 15.4 nM.

In the case of “CUCCUACAUGAGGAUCACCCAUGUCAGGAUAUCUCAGUGGUACCUAAAUUUACCACCCAGAGAAGGGACGUGCA [Diradireer] (puzzle: Exclusion 1)”, the “apparent KD of MS2 coat protein” value under setting [2] is 11.9 nM.

Take “CUCCUGCGAGGAUAUACAUAGUGACGUCUGUUUAAUCUUAAACAUGAGGAUCACCCAUGUAGAAGGUGCGUCAC [EX2 #82] (Eterna round: R97, puzzle: Exclusion 2)”: the “apparent KD of MS2 coat protein” value (input ligand: FMN 200 uM) was 13.1 nM and the “apparent KD of MS2 coat protein” value (input ligand: none) worked out at 13.2 nM.

As to “CUCGGACAUGAGGAUCACCCAUGUGAGGAUAUGAUGCGAUCGUCGAAAGACGAUAGCAUCAGAAGGUACAAAUG [Fiskers Ex 1 - 22] (Eterna round: R96, puzzle: Exclusion 1)”, the “apparent KD of MS2 coat protein” value reads like this: (input ligand: FMN 200 uM) 60.2 nM; under setting [4], 36.2 nM; (input ligand: none) 50.3 nM.

Turning to “CUCGGACAUGAGGAUCACCCAUGUGAGGAUAUGAUGCGAUCGUCGAAAGACGAUAGCAUCAGAAGGUACAAAUG [Fiskers Ex 1 - 22] (puzzle: Exclusion 1)”, under setting [2], the “apparent KD of MS2 coat protein” value came out at 55.6 nM.

For the sequence “CUCGGGAGUCAGGAUAUCGGCACUUAUCAAUCACGAGAAGGGACGACAUGAGGAUCACCCAUGUGGGAAAAGAA [Ersoar] (puzzle: Exclusion 6)”, the “apparent KD of MS2 coat protein” value came out at 252 nM under setting [1], 89.4 nM under setting [2] and 84.7 nM under setting [3].

Regarding “CUCGUGCAGCUUUGCUGUACGAGUACAUGAGGAUCACCCAUGUAGGAUAUGGUACGCUUUGCGUGCUAGAAGGACGUGUGUAUG [JL EXNG3 1.39] (Eterna round: R96, puzzle: Exclusion NG 3)”, the “apparent KD of MS2 coat protein” value runs as follows: (input ligand: FMN 200 uM) 117 nM; under setting [4], 29 nM; (input ligand: none) 31.8 nM.

“CUCUAGAAAGGAUAUACAUGAGGAUCACCCAUGUCCACGCCAUAACCGAGUGCCAUCUGUAGAAGGUUCAGAGU [Eternabot (L1) Solution 96] (Eterna round: R97, puzzle: Exclusion 3)”: the “apparent KD of MS2 coat protein” value (input ligand: FMN 200 uM) turned out to be 52.5 nM and the “apparent KD of MS2 coat protein” value (input ligand: none) was 29.2 nM.

In the case of “CUCUUGGCAGGAUAUGCUCUCUUAGACAUGAGGAUCACCCAUGUGCUCAUUCCUUCUUUUGCAGAAGGGCCUUAAC [JR_E5_Sub047] (puzzle: Exclusion 5)”, the “apparent KD of MS2 coat protein” value under setting [2] stood at 63.9 nM.

As to “CUCUUGUCAGGAUAUCAACGCCGCCCACACGGGCGGCGAAAUGAGAAGGGACAUGAGGAUCACCCAUGUUAAAA [Orsoesarqu] (puzzle: Exclusion 4)”, the “apparent KD of MS2 coat protein” value came out at 20.3 nM under setting [1], 133 nM under setting [2] and 212 nM under setting [3].

For “CUGAGCAGACGGAGAUCCAACAUGAGGAUCACCCAUGUCUCAUAAGCUUUUUGCUUGUCUUAUCCUCCUCUGUUCUC [Mariedxeor] (puzzle: Sensor v3, turn-off variant 1)”, the “apparent KD of MS2 coat protein” value was 17.7 nM under setting [1], 315 nM under setting [2] and 14.4 nM under setting [3].

As to “CUGAGCUGAGGAUAUACAUGAGGAUCACCCAUGUAAAGCAGCUUGCGUACAGGCAGAUGUAGAAGGCAGUUCGG [Mod of JL 16 - Jieux - Exclusion 3] (Eterna round: R97, puzzle: Exclusion 3)”, the “apparent KD of MS2 coat protein” value (input ligand: FMN 200 uM) was found to be 37.4 nM and the “apparent KD of MS2 coat protein” value (input ligand: none) is 18.1 nM.

“CUGAGGUAGCGGUCCUAUGACAUGAGGAUCACCCAUGUACCUUGCUUUGAGCUAAUUGCUCGUCUUAUGAUUCUCGG [Mat - Sensor v3 - turn-off var 1 - JL Mod - D45] (puzzle: Sensor v3, turn-off variant 1)”: the “apparent KD of MS2 coat protein” value under setting [1] is 500 nM, the “apparent KD of MS2 coat protein” value under setting [2] came to 457 nM and the “apparent KD of MS2 coat protein” value under setting [3] turned out to be 479 nM.

Turning to “CUGAGUGGAGGAUAUACAUGAGGAUCACCCAUGUAAAGUAGCUUGCGUACAGGCAGAUGUAGAAGGUCAUUCGG [Mod of JL 12 - Jieux - Exclusion 3] (Eterna round: R97, puzzle: Exclusion 3)”, the “apparent KD of MS2 coat protein” value by setting is: (input ligand: FMN 200 uM) 28.2 nM; (input ligand: none) 10.3 nM.

For “CUGCUCCGUGUAGGAUAUCCGCGCAACCAACGCGGAGAAGGACAUGAGGAUCACCCAUGUAUGUUAUUAUCACGUGAAGCGUCC [Design 29] (Eterna round: R96, puzzle: Exclusion NG 1)”, the “apparent KD of MS2 coat protein” value runs as follows: (input ligand: FMN 200 uM) 32.5 nM; under setting [4], 15.5 nM; (input ligand: none) 28.1 nM.

In the case of “CUGCUCCGUGUAGGAUAUGCAUACCACCACUAUGCAGAAGGACAUGAGGAUCACCCAUGUAUGUUAUUAUCACGUGUAGCGUCC [Design 18] (Eterna round: R96, puzzle: Exclusion NG 1)”, the “apparent KD of MS2 coat protein” value came to 23 nM (input ligand: FMN 200 uM), 14.9 nM under setting [4] and 20.6 nM (input ligand: none).

The values above are taken from the supplement of paper PMC9170038.
